How the values were obtained:
[1] = molecular target: MspA-((Del-L74/G75/D118/L119)D56L/E59L/L88N/D90N/D91N/Q126R/D134R/E139K)8
[2] = molecular target: MspA-((Del-L74/G75/D118/L119)D56N/E57D/E59R/L88N/D90N/D91N/Q126R/D134R/E139K)8
[3] = molecular target: MspA-((Del-L74/G75/D118/L119)D56N/E57N/E59N/L88N/D90N/D91N/Q126R/D134R/E139K)8
[4] = molecular target: MspA-((Del-L74/G75/D118/L119)D56N/E59F/L88N/D90N/D91N/Q126R/D134R/E139K)8
[5] = molecular target: MspA-((Del-L74/G75/D118/L119)D56N/E59R/L88N/D90N/D91N/Q126R/D134R/E139K)8
[6] = molecular target: MspA-((Del-L74/G75/D118/L119)D56N/E59S/L88N/D90N/D91N/Q126R/D134R/E139K)8
[7] = molecular target: MspA-((Del-L74/G75/D118/L119)D56N/E59T/L88N/D90N/D91N/Q126R/D134R/E139K)8
[8] = molecular target: MspA-((Del-L74/G75/D118/L119)D56N/E59W/L88N/D90N/D91N/Q126R/D134R/E139K)8
[9] = molecular target: MspA-((Del-L74/G75/D118/L119)D56N/L88N/D90N/D91N/Q126R/D134R/E139K)8
[10] = molecular target: MspA-((Del-L74/G75/D118/L119)D56W/E59R/L88N/D90N/D91N/Q126R/D134R/E139K)8
[11] = molecular target: MspA-((Del-L74/G75/D118/L119)E57R/E59N/L88N/D90N/D91N/Q126R/D134R/E139K)8
[12] = molecular target: MspA-((Del-L74/G75/D118/L119)E59F/L88N/D90N/D91N/Q126R/D134R/E139K)8
[13] = molecular target: MspA-((Del-L74/G75/D118/L119)E59N/L88N/D90N/D91N/Q126R/D134R/E139K)8
[14] = molecular target: MspA-((Del-N79/F80N113N114)D56N/E59R/G75S/G77S/L88N/D90N/D91N/D118R/Q126R/D134R/E139K)8

B1: T4 Dda-E94C/C109A/C136A/A360C (SEQ ID NO: 24 with mutations E94C/C109A/C136A/A360C) (protein)
chain: MTFDDLTEGQKNAFNIVMKAIKEKKHHVTINGPAGTGKTTLTKFIIEALISTGETGIILAAPTHAAKKILSKLSGKEASTIHSILKINPVTYECNVLFEQKEVPDLAKARVLICDEVSMYDRKLFKILLSTIPPWATIIGIGDNKQIRPVDPGENTAYISPFFTHKDFYQCELTEVKRSNAPIIDVATDVRNGKWIYDKVVDGHGVRGFTGDTALRDFMVNYFSIVKSLDDLFENRVMAFTNKSVDKLNSIIRKKIFETDKDFIVGEIIVMQEPLFKTYKIDGKPVSEIIFNNGQLVRIIEAEYTSTFVKARGVPGEYLIRHWDLTVETYGDDEYYREKIKIISSDEELYKFNLFLGKTCETYKNWNKGGKAPWSDFWDAKSQFSKVKALPASTFHKAQGMSVDRAFIYTPCIHYADVELAQQLLYVGVTRGRYDVFYV
- slips forward per kilobase [1]: less than 5 slips forward per kilobase
- Average Signal to Noise (S2N) [2]: 12.9
- Mean Current Range [2]: 15.4 pA
- Mean Noise of the Signal [2]: 1.19
- Median Current Range [2]: 15.4 pA
- Median Noise of the Signal [2]: 1.16
- Median S2N [2]: 11.9
- Percentage of complement slipping forwards [2]: 0.7%
- Standard Deviation of S2N [2]: 0.33
- Standard Deviation of the Current Range [2]: 1.77 pA
- Standard Deviation of the Noise of the Signal [2]: 0.19
- Average Signal to Noise (S2N) [3]: 13
- Mean Current Range [3]: 19 pA
- Mean Noise of the Signal [3]: 1.46
- Median Current Range [3]: 19.2 pA
- Median Noise of the Signal [3]: 1.35
- Standard Deviation of the Current Range [3]: 2.07 pA
- Standard Deviation of the Noise of the Signal [3]: 0.36
- Average Signal to Noise (S2N) [4]: 12.8
- Mean Current Range [4]: 15.8 pA
- Mean Noise of the Signal [4]: 1.24
- Median Current Range [4]: 15.7 pA
- Median Noise of the Signal [4]: 1.17
- Median S2N [4]: 12.8
- Percentage of complement slipping forwards [4]: 0.25%
- Standard Deviation of S2N [4]: 0.12
- Standard Deviation of the Current Range [4]: 1.86 pA
- Standard Deviation of the Noise of the Signal [4]: 0.27
- Average Signal to Noise (S2N) [5]: 12.5
- Mean Current Range [5]: 15.3 pA
- Mean Noise of the Signal [5]: 1.22
- Median Current Range [5]: 15.3 pA
- Median Noise of the Signal [5]: 1.17
- Percentage of complement slipping forwards [5]: 0.49%
- Standard Deviation of the Current Range [5]: 1.66 pA
- Standard Deviation of the Noise of the Signal [5]: 0.2
- slips forward per kilobase [5]: less than 5 slips forward per kilobase
- Average Signal to Noise (S2N) [6]: 11.4
- Mean Current Range [6]: 15 pA
- Mean Noise of the Signal [6]: 1.31
- Median Current Range [6]: 14.9 pA
- Median Noise of the Signal [6]: 1.27
- Median S2N [6]: 11.3
- Percentage of complement slipping forwards [6]: 0.43%
- Standard Deviation of S2N [6]: 0.29
- Standard Deviation of the Current Range [6]: 1.7
- Standard Deviation of the Noise of the Signal [6]: 0.23
- Average Signal to Noise (S2N) [7]: 12.3
- Mean Current Range [7]: 16 pA
- Mean Noise of the Signal [7]: 1.31
- Median Current Range [7]: 16.1 pA
- Median Noise of the Signal [7]: 1.26
- Median S2N [7]: 12.6
- Percentage of complement slipping forwards [7]: 0.8%
- Standard Deviation of S2N [7]: 0.87
- Standard Deviation of the Current Range [7]: 1.87 pA
- Standard Deviation of the Noise of the Signal [7]: 0.24
- Average Signal to Noise (S2N) [8]: 11
- Mean Current Range [8]: 15.2 pA
- Mean Noise of the Signal [8]: 1.38
- Median Current Range [8]: 15.1 pA
- Median Noise of the Signal [8]: 1.32
- Standard Deviation of the Current Range [8]: 1.85
- Standard Deviation of the Noise of the Signal [8]: 0.26
- Average Signal to Noise (S2N) [9]: 12.3
- Mean Current Range [9]: 14.7 pA
- Mean Noise of the Signal [9]: 1.2
- Median Current Range [9]: 14.6 pA
- Median Noise of the Signal [9]: 1.17
- Standard Deviation of the Current Range [9]: 1.66 pA
- Standard Deviation of the Noise of the Signal [9]: 0.15
- Average Signal to Noise (S2N) [10]: 10.7
- Mean Current Range [10]: 14.4 pA
- Mean Noise of the Signal [10]: 1.35
- Median Current Range [10]: 14.3 pA
- Median Noise of the Signal [10]: 1.28
- Median S2N [10]: 11.9
- Percentage of complement slipping forwards [10]: 0.25%
- Standard Deviation of S2N [10]: 0.33
- Standard Deviation of the Current Range [10]: 1.79
- Standard Deviation of the Noise of the Signal [10]: 0.26
- Average Signal to Noise (S2N) [11]: 10.6
- Mean Current Range [11]: 14.7 pA
- Mean Noise of the Signal [11]: 1.4
- Median Current Range [11]: 14.6 pA
- Median Noise of the Signal [11]: 1.22
- Standard Deviation of the Current Range [11]: 1.88
- Standard Deviation of the Noise of the Signal [11]: 0.45
- Average Signal to Noise (S2N) [12]: 11.4
- Mean Current Range [12]: 15.7 pA
- Mean Noise of the Signal [12]: 1.37
- Median Current Range [12]: 15.7 pA
- Median Noise of the Signal [12]: 1.33
- Median S2N [12]: 11.8
- Percentage of complement slipping forwards [12]: 0.3%
- Standard Deviation of S2N [12]: 0.64
- Standard Deviation of the Current Range [12]: 1.81 pA
- Standard Deviation of the Noise of the Signal [12]: 0.22
- Average Signal to Noise (S2N) [13]: 13.3
- Mean Current Range [13]: 14.7 pA
- Mean Noise of the Signal [13]: 1.11
- Median Current Range [13]: 14.7 pA
- Median Noise of the Signal [13]: 1.08
- Standard Deviation of the Current Range [13]: 2.36 pA
- Standard Deviation of the Noise of the Signal [13]: 0.19
- Average Signal to Noise (S2N) [14]: 13.1
- Mean Current Range [14]: 15.8 pA
- Mean Noise of the Signal [14]: 1.21
- Median Current Range [14]: 15.8 pA
- Median Noise of the Signal [14]: 1.13
- Standard Deviation of the Current Range [14]: 1.9 pA
- Standard Deviation of the Noise of the Signal [14]: 0.28
